Positions count from the first letter of the chain named. Numbers in names are those of the source.
What was measured:
Details in all cases: partners not purified
GFP-SNX4 S448R = target: T1, GFP-SNX4 S448R (UniProt O95219 1-450, S448R); assay: co-IP; GST-GFP nanobody (GBP) on glutathione Sepharose beads, 2 h at 4°C with HeLa cell lysate overexpressing GFP-SNX4 (WT or mutant) and HA-SNX32 (WT or mutant); immunoblot anti-GFP and anti-HA
T1 construct: Sorting nexin 4 (SNX4) with S448R in the BAR domain, by site directed mutagenesis of GFP-tagged SNX4; also called pEGFP SNX4S448R; source: HeLa, transfected, overexpressed, in lysate
T1 sequence (looked up): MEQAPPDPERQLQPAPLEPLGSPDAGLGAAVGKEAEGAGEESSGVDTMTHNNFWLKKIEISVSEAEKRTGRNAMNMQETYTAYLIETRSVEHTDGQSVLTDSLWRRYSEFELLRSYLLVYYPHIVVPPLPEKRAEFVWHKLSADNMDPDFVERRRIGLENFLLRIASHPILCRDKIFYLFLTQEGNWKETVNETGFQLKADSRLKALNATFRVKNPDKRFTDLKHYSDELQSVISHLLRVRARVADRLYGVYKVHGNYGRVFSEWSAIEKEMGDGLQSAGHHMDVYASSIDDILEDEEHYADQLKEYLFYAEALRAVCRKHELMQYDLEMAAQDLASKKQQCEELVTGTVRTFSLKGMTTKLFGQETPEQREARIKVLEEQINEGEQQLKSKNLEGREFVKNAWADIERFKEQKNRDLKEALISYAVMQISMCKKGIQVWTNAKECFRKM

GFP-SNX4 Y258E = target: T2, GFP-SNX4 Y258E (UniProt O95219 1-450, Y258E); assay: as above
T2 construct: Sorting nexin 4 (SNX4) with Y258E in the BAR domain, by site directed mutagenesis of GFP-tagged SNX4; also called pEGFP SNX4Y258E; source: HeLa, transfected, overexpressed, in lysate
T2 sequence (looked up): T1 sequence (looked up) with Y258E, R448S

GFP-SNX1 = target: T3, GFP-SNX1 (UniProt Q13596 1-522); assay: co-IP; GST-GFP nanobody (GBP) on glutathione Sepharose beads, 2 h at 4°C with HEK293T cell lysate overexpressing GFP-tagged and HA-tagged SNX proteins; washed with PBS; immunoblot anti-GFP and anti-HA
T3 construct: Sorting nexin 1 (SNX1); pEGFP C1 SNX1, gift from Prof Peter J Cullen; also called GFP-SNX1 WT; source: HEK293T or HeLa, transfected, overexpressed, in lysate
T3 sequence (Q13596 whole entry): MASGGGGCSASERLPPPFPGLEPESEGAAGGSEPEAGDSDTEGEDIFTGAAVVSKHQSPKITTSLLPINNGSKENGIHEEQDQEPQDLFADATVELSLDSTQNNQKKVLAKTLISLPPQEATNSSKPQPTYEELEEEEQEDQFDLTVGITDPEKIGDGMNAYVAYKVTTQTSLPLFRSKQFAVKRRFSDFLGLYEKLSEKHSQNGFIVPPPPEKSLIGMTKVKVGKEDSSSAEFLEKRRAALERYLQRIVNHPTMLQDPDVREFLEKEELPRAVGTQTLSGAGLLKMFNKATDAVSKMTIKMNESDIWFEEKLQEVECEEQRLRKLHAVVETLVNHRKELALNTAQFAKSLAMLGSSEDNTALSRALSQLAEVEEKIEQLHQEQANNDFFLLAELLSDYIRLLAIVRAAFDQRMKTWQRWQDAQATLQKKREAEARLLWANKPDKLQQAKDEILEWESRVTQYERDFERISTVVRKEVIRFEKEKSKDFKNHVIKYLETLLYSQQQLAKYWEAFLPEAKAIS

GFP-SNX8 = target: T4, GFP-SNX8 (UniProt Q9Y5X2 1-465); assay: as above
T4 construct: Sorting nexin 8 (SNX8); source: HEK293T, transfected, overexpressed, in lysate
T4 sequence (looked up): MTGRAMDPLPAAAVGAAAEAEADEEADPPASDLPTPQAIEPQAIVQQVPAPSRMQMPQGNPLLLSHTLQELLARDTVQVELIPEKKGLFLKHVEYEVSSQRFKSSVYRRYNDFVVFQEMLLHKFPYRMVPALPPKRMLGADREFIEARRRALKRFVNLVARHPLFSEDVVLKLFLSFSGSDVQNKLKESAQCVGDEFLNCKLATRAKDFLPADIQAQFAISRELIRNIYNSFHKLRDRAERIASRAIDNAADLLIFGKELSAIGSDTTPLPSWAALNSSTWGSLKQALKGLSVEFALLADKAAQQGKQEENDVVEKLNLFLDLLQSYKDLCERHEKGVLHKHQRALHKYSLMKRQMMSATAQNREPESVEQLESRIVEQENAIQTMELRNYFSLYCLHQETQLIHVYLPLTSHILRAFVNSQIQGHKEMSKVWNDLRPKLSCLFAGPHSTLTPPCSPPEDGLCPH

GFP-SNX32 WT = target: T5, GFP-SNX32 WT (UniProt Q86XE0 1-403); assay: as above
T5 construct: Sorting nexin 32 (SNX32), full length; pEGFP C1 SNX32 FL, gift from Prof Peter J Cullen; also called GFP-SNX32 wild type; GFP-tagged SNX32; source: HEK293T or HeLa, transiently transfected, in lysate; SH-SY5Y, lentivirally transduced, stably expressing, in lysate
T5 sequence (looked up): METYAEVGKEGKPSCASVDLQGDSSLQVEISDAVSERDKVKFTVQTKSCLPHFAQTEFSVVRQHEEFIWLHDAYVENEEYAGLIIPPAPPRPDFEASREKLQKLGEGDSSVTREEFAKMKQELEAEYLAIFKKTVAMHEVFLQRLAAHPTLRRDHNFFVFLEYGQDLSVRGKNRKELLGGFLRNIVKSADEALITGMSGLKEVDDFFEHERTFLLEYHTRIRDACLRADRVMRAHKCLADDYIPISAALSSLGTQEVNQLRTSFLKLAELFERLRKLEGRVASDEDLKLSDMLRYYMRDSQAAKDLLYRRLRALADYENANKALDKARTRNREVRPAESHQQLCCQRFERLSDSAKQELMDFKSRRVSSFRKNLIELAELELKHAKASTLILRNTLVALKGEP

GFP-SNX4 = target: T6, GFP-SNX4 (UniProt O95219 1-450); assay: co-IP; GST-GFP nanobody (GBP) on glutathione Sepharose beads, 2 h at 4°C with HeLa cell lysate overexpressing GFP-SNX4 (WT or mutant) and HA-SNX32 (WT or mutant); immunoblot anti-GFP and anti-HA
T6 construct: Sorting nexin 4 (SNX4); pEGFP C1 SNX4, gift from Prof Peter J Cullen; also called GFP-SNX4 WT; source: HEK293T or HeLa, transfected, overexpressed, in lysate
T6 sequence (looked up): T1 sequence (looked up) with R448S

B1: HA-SNX32 FL (natural protein, UniProt Q86XE0 1-403, looked up)
chain: T5 sequence (looked up)
notes: Sorting nexin 32 (SNX32), full length (FL); pcDNA3 HA N(I) SNX32 FL, subcloned from pEGFP C1 SNX32 FL; also called HA-SNX32 WT; Sorting nexin 32; source: HEK293T or HeLa, transfected, overexpressed, in lysate
ratio of HA to GFP band intensity (GFP-SNX4 S448R): 0.23 | ratio of HA to GFP band intensity (GFP-SNX4 Y258E): 0.33 | ratio of HA to GFP band intensity (GFP-SNX1): 0.98 | ratio of HA to GFP band intensity (GFP-SNX8): 0.62 | ratio of HA to GFP band intensity (GFP-SNX32 WT): 0.85

B2: HA-SNX32 R220E (natural protein, UniProt Q86XE0 1-403, looked up)
chain: T5 sequence (looked up) with R220E
notes: SNX32 with R220E, by site directed mutagenesis of HA-tagged SNX32; source: HeLa, transfected, overexpressed, in lysate
ratio of HA to GFP band intensity (GFP-SNX4): 1.02

B3: HA-SNX32 E256R (natural protein, UniProt Q86XE0 1-403, looked up)
chain: T5 sequence (looked up) with E256R
notes: SNX32 with E256R, by site directed mutagenesis of HA-tagged SNX32; source: HeLa, transfected, overexpressed, in lysate
ratio of HA to GFP band intensity (GFP-SNX4): 0.66

B4: HA-SNX32 Q259R (natural protein, UniProt Q86XE0 1-403, looked up)
chain: T5 sequence (looked up) with Q259R
notes: SNX32 with Q259R, by site directed mutagenesis of HA-tagged SNX32; source: HeLa, transfected, overexpressed, in lysate
ratio of HA to GFP band intensity (GFP-SNX4): 0.75

B5: HA-SNX32 R366E (natural protein, UniProt Q86XE0 1-403, looked up)
chain: T5 sequence (looked up) with R366E
notes: SNX32 with R366E, by site directed mutagenesis of HA-tagged SNX32; source: HeLa, transfected, overexpressed, in lysate
ratio of HA to GFP band intensity (GFP-SNX4): 0.49
